Our source for the Kd and koff values is PMC6270503, “The Clip-Segment of the von Willebrand Domain 1 of the BMP Modulator Protein Crossveinless 2 Is Preformed” (Molecules, 2013).

For the assay, the target named is T1, E. coli derived recombinant human BMP-2 (human, UniProt P12643 283-396).
T1 construct: Bone morphogenetic protein 2, human, recombinant from E. coli; also called bone morphogenetic protein 2
Kind of assay: SPR; ProteON XPR36, GLC chip; BMP-2 immobilised by amine coupling (1000-2000 RU), CV2 VWC1 proteins as analytes in six concentrations; 25 °C, HBST500 (10 mM HEPES pH 7.4, 500 mM NaCl, 0.005% Tween20); global Langmuir 1:1 fit, KD = koff/kon, or from dose-dependency of equilibrium binding for weak or fast binders; apparent KD. Particulars: both partners purified.

T1 sequence (P12643 283-396): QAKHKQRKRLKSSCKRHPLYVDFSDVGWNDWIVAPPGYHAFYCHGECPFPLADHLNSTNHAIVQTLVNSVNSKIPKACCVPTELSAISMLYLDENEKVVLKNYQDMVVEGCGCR

B1: CV2 VWC1 C9A/C31A (domain or fragment)
chain: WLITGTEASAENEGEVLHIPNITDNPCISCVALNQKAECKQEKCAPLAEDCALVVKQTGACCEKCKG
modifications: Mature numbering = entity position minus 3 (C9A/C31A = C12A/C34A). Introduced N-terminal Trp kept; vector Gly-Ser left out. Remaining native disulfides, including Cys26-Cys60, Cys43-Cys61 and …
B1: the Kd is at least 3.3 µM and the koff (as a rule, the rate constant with which the complex falls apart) was at least 0.05 s⁻¹.
